Results from article PMC9083542, “Small Molecule Inhibitor Targeting CDT1/Geminin Protein Complex Promotes DNA Damage and Cell Death in Cancer Cells” (Frontiers in Pharmacology, 2022).

B1: Full-length human Geminin (natural protein, UniProt O75496 1-209, looked up)
chain: MNPSMKQKQEEIKENIKNSSVPRRTLKMIQPSASGSLVGRENELSAGLSKRKHRNDHLTSTTSSPGVIVPESSENKNLGGVTQESFDLMIKENPSSQYWKEVAEKRRKALYEALKENEKLHKEIEQKDNEIARLKKENKELAEVAEHVQYMAELIERLNGEPLDNFESLDNQEFDSEEETVEDSLVEDSEIGTCAEGTVSSSTDAKPCI
notes: Geminin, human, full length, cloned into pET22b; pET22b can add a C-terminal His tag (surmise); also called full length Geminin; source: E. coli Rosetta 2 (DE3), purified (Ni-NTA IMAC, SEC)

Tests used:
CDT1 = molecular target: T1, CDT1 (Homo sapiens, UniProt Q9H211); test: SPR inhibition of Geminin binding to immobilized CDT1; AlphaScreen IC50 […]; FRET in MCF7 cells
T1 construct: tCDT1 (residues 158–356); also miniCDT1 (residues 158–396); with Geminin
T1 sequence (Q9H211 158-356): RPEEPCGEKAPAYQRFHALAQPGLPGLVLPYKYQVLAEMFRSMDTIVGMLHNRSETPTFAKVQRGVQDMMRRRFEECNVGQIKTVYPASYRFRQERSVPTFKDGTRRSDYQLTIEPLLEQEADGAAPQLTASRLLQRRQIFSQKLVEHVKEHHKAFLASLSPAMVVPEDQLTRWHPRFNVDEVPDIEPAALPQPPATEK
T1 sequence (O75496 1-209 partner): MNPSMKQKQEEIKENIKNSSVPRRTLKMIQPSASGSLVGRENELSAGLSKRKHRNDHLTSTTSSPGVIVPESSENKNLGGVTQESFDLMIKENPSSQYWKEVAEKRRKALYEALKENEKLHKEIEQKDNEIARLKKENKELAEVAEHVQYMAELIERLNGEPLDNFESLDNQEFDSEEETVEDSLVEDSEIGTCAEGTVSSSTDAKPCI

CDT1 (Homo sapiens) = CDT1 (Homo sapiens) (UniProt Q9H211); details: cited from earlier work
[1] = molecular target: T2, His-tagged human CDT1^158-396 Y170A (miniCDT1Y170A) (human, UniProt Q9H211 158-396, Y170A); test: SPR; Biacore T100, 25°C; about 5.000 RU of miniCDT1 variants held on a Ni NTA chip via N-terminal His-tag; full-length Geminin injected at 1-100 nM; 20 mM Tris pH 7.5, 200 mM NaCl, 30 μl/min; details: both partners purified
T2 construct: CDT1, human, residues 158-396 with Y170A, cloned into pET28a; also called His6-tagged miniCDT1^Y170A; source: E. coli Rosetta 2 (DE3), expressed alone or co-expressed with ΔDBGeminin, purified (Ni-NTA IMAC, SEC); not shown: His6, N-terminal, kept
T2 sequence (looked up): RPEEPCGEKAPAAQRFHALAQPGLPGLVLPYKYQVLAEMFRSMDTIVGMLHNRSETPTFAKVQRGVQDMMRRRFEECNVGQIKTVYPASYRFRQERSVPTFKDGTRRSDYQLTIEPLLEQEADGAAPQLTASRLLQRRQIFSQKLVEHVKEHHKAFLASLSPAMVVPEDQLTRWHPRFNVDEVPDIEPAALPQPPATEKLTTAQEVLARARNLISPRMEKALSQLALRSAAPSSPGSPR

[2] = molecular target: T3, His-tagged human CDT1^158-396 (miniCDT1), wild type (human, UniProt Q9H211 158-396); test: as above; details: both partners purified
T3 construct: CDT1, human, residues 158-396 (miniCDT1); plasmid described in De Marco et al., 2009; also called His6-tagged miniCDT1; source: E. coli Rosetta 2 (DE3), expressed alone or co-expressed with Geminin variants, purified (Ni-NTA IMAC, SEC); not shown: His6, N-terminal, kept
T3 sequence (looked up): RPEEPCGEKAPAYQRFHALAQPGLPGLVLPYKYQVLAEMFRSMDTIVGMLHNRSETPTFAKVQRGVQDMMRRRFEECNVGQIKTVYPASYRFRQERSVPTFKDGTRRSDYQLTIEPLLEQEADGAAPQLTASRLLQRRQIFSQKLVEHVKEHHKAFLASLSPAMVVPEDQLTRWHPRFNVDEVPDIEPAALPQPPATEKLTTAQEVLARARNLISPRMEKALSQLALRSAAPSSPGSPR

[3] = molecular target: T4, His-tagged human CDT1^158-396 F173A (miniCDT1F173A) (human, UniProt Q9H211 158-396, F173A); test: as above; details: both partners purified
T4 construct: CDT1, human, residues 158-396 with F173A, cloned into pET28a; source: E. coli Rosetta 2 (DE3), expressed alone or co-expressed with ΔDBGeminin, purified (Ni-NTA IMAC, SEC); not shown: His6, N-terminal, kept
T4 sequence (looked up): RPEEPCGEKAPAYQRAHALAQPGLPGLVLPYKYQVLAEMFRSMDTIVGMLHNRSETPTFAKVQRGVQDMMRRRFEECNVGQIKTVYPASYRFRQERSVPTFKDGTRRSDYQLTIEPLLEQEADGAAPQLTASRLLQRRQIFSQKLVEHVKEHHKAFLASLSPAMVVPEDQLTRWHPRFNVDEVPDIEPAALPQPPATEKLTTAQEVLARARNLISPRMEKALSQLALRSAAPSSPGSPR

[4] = molecular target: B1; test: SPR; Biacore T100, 25°C; tCDT1 (about 6.000 RU) or miniCDT1 covalently immobilised on a CM5 chip (amine coupling, pH 5.5); Geminin 12-966 nM with AF615 at 10 μM, 100 μM, 1 mM (20% DMSO); 20 mM Hepes pH 7.5, 200 mM NaCl, Tween 20 0.01%, 30 μl/min; details: both partners purified
[5] = molecular target: T2, His-tagged human CDT1^158-396 Y170A …; test: AlphaScreen or HTRF; HTS format and its optimisation (titration, data not shown): Flag-ΔDBGeminin/His6-miniCDT1Y170A complex 200-400 nM (300 nM in the screen), 10 μg/ml streptavidin Donor and nickel-chelate Acceptor beads, 25 nM biotinylated anti-Flag antibody; 25 mM Hepes pH 7.4, 100 mM NaCl, 0.2% BSA; details: both partners purified
CDT1-GFP = molecular target: T5, CDT1-GFP (UniProt Q9H211 1-546); test: FRET or BRET; sensitized emission FRET in fixed MCF7 cells stably expressing CDT1-GFP (or GFP-NLS as control), transiently transfected with Geminin-dHcRed; with DMSO or AF615 at 11, 33, 100 μM for 24 h; details: partners not purified
T5 construct: CDT1 fused to GFP; plasmid and cell line from Xouri et al., 2007; also called MCF7 CDT1-GFP; source: MCF7 cells stably expressing CDT1-GFP, in fixed cells
T5 sequence (looked up): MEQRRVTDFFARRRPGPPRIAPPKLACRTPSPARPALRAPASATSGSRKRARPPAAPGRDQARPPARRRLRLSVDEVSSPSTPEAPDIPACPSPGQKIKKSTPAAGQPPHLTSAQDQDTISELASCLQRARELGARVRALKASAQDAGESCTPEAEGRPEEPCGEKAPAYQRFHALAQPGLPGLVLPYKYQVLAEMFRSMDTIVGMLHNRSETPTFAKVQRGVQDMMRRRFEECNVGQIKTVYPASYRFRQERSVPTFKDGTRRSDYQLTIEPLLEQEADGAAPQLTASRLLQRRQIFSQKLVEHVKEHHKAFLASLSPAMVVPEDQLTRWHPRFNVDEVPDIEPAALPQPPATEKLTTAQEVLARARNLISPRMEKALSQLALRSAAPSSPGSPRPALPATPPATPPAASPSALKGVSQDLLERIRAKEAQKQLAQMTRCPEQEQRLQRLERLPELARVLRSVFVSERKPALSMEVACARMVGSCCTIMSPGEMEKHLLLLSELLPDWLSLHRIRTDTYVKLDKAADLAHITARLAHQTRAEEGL

[6] = molecular target: T6, His-tagged human CDT1^158-396 L176A (miniCDT1L176A) (human, UniProt Q9H211 158-396, L176A); test: AlphaScreen or HTRF; competition: Flag-ΔDBGeminin/His6-miniCDT1 mutant complex at 50 nM, streptavidin Donor beads with biotinylated anti-Flag antibody, nickel-chelate Acceptor beads; increasing untagged ΔDBGeminin; 25 mM Hepes pH 7.4, 100 mM NaCl, 0.1% BSA; 1.5 h at RT; details: both partners purified
T6 construct: CDT1, human, residues 158-396 with L176A, cloned into pET28a; Could not be isolated on its own (limited solubility); used only as complex with ΔDBGeminin; source: E. coli Rosetta 2 (DE3), co-expressed with ΔDBGeminin, co-purified (Ni-NTA IMAC, SEC)
T6 sequence (looked up): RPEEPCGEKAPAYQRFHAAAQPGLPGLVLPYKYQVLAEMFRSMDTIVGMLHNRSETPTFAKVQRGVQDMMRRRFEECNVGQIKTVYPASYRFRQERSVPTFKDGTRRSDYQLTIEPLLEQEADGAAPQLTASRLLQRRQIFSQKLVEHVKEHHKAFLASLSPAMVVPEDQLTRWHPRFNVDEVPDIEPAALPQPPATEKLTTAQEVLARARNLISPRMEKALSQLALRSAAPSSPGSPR

[7] = molecular target: T4, His-tagged human CDT1^158-396 F173A …; test: as above; details: both partners purified

Molecule: O=C(NNC(=S)N1CCOCC1)c1cnccn1 [AF615]
- Ki (CDT1): 0.37 µM

Molecule: Geminin (from UniProt O75496)
- Kd (CDT1 (Homo sapiens)): 0.0044 µM

Molecule: B1
- Kd [1]: 0.041 µM
- Kd [2]: 0.0094 µM
- Kd [3]: 0.025 µM

B2: His-tagged human CDT1^158-356 (tCDT1) (domain or fragment, UniProt Q9H211 158-356, looked up)
chain: RPEEPCGEKAPAYQRFHALAQPGLPGLVLPYKYQVLAEMFRSMDTIVGMLHNRSETPTFAKVQRGVQDMMRRRFEECNVGQIKTVYPASYRFRQERSVPTFKDGTRRSDYQLTIEPLLEQEADGAAPQLTASRLLQRRQIFSQKLVEHVKEHHKAFLASLSPAMVVPEDQLTRWHPRFNVDEVPDIEPAALPQPPATEK
notes: CDT1, human, residues 158-356 (tCDT1); plasmid described in De Marco et al., 2009; source: E. coli Rosetta 2 (DE3), purified (Ni-NTA IMAC, SEC)
- binding result [4]: binds

B3: Flag-tagged Geminin^28-209 (ΔDBGeminin) (domain or fragment, human, UniProt O75496 28-209, looked up)
chain: MIQPSASGSLVGRENELSAGLSKRKHRNDHLTSTTSSPGVIVPESSENKNLGGVTQESFDLMIKENPSSQYWKEVAEKRRKALYEALKENEKLHKEIEQKDNEIARLKKENKELAEVAEHVQYMAELIERLNGEPLDNFESLDNQEFDSEEETVEDSLVEDSEIGTCAEGTVSSSTDAKPCI
notes: Geminin, human, residues 28-209 (lacks the N-terminal stretch with the destruction box), cloned into pET22b; also called Flag-tagged ΔDBGeminin; source: E. coli Rosetta 2 (DE3), co-expressed with miniCDT1 variants, co-purified (Ni-NTA IMAC, SEC)
- AlphaScreen signal-to-background ratio [5]: > 20 fold

B4: Geminin-dHcRed (natural protein, UniProt O75496 1-209, looked up)
chain: MNPSMKQKQEEIKENIKNSSVPRRTLKMIQPSASGSLVGRENELSAGLSKRKHRNDHLTSTTSSPGVIVPESSENKNLGGVTQESFDLMIKENPSSQYWKEVAEKRRKALYEALKENEKLHKEIEQKDNEIARLKKENKELAEVAEHVQYMAELIERLNGEPLDNFESLDNQEFDSEEETVEDSLVEDSEIGTCAEGTVSSSTDAKPCI
notes: Geminin fused to dHcRed; plasmid from Xouri et al., 2007; source: MCF7 cells, transiently transfected, in fixed cells
- FRET mean intensity against cells expressing GFP-NLS and Geminin-dHcRed (CDT1-GFP): ~3 fold

B5: untagged ΔDBGeminin (domain or fragment, human, UniProt O75496 28-209, looked up)
chain: MIQPSASGSLVGRENELSAGLSKRKHRNDHLTSTTSSPGVIVPESSENKNLGGVTQESFDLMIKENPSSQYWKEVAEKRRKALYEALKENEKLHKEIEQKDNEIARLKKENKELAEVAEHVQYMAELIERLNGEPLDNFESLDNQEFDSEEETVEDSLVEDSEIGTCAEGTVSSSTDAKPCI
notes: Geminin, human, residues 28-209 (ΔDBGeminin), without the Flag tag; also called untagged ΔDBGeminin (Geminin 28-209)
- excess of untagged ΔDBGeminin needed for a similar signal reduction [6]: 100 fold
- excess of untagged ΔDBGeminin needed for a similar signal reduction [7]: 10 fold
